The nature of this data set: yeast display, Sf9 membrane polyspecificity reagent, FACS + sequencing; frameworks hold sequencing errors. A digest of the protocol:
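Nanobodies came from a synthetic yeast display library in Saccharomyces cerevisiae BJ5465, induced with galactose for 36–48 hours and stained for 1 hour at 4 °C with 10% biotinylated, detergent-solubilized Sf9 membrane reagent. Cells were enriched on streptavidin microbeads and then FACS-sorted, with low and high (top ~1%) gates set on anti-HA fluorescence for expression and streptavidin fluorescence for reagent binding. Each polyreactivity label reflects the gate a clone came from. Genes were amplified by colony PCR, sequenced by MiSeq 2 × 250 and filtered by CDR length.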
As to “QVHLVESGGGLVQAGGSLRLSCAASGIIFLVYAMGWYRQAPGKEWELVAGISGSATSTNYADSVKGRFTISRDNAKNTVYLQMNSLKPEDTAVYYCAASYYGYYVPDNSKYGYWGQGTQVTVSS”, the “polyreactivity (PSR sort gate)” value was “low polyreactivity”.

For the sequence “QVHLVESGGGLVQAGGSLRLSCAASGIIISSYAMGWYRQAPGKERELVAAITWGGTRTNYADSVKGRFTISRDNAKNTVYLQMNSLKPEDTAVYYCAADKYLYGRLTRNFHYYYWGQGTQVTVSS”, the “polyreactivity (PSR sort gate)” value is given as “low polyreactivity”.

On to “QVHLVESGGGLVQAGGSLRLSCAASGIIVYPYAMGWYRQAPGKESELVATISYRGGSTYYADSVKGRFTISRDNAKNTVYLQMNSLKPEETAVYYCAAERGYPKFGYCGQGTQVTVSS”, for which the “polyreactivity (PSR sort gate)” value is on record as “low polyreactivity”.

For “QVHLVESGGGLVQAGGSLRLSCAASGITFISYAMGWYRQAPGKEREFVAAITRRGGSTYYADSVKGRFTISRDNAKNTVYLQMNSLKPEDTAVYYCAARVLSLYTYYYWGQGTQVTVSS”, the “polyreactivity (PSR sort gate)” value is “high polyreactivity”.

With “QVHLVESGGGLVQAGGSLRLSCAASGITFQRYAMGWYREAPGKERELVASISTNGGTTYYADSVKGRFTISRHNAKNTVYLQMNSLKPEDTAVYYCNAESGYVYYIRYNYWGQGTQVTVSS”, the “polyreactivity (PSR sort gate)” value was “high polyreactivity”.

For the sequence “QVHLVESGGGLVQAGGSLRLSCAASGITFRRYGMGWYRQAPGKERELVATITSSVGSRTYYADSVKGRFTISRDNAKNTVYLQMNSLKPEDTAVYYCAADHRVYDYEYWGQGTQVTVSS”, the “polyreactivity (PSR sort gate)” value is on record as “low polyreactivity”.

In the case of “QVHLVESGGGLVQAGGSLRLSCAASGITFYRNAMGWYRQPRGKEMELVAAITWNGGRTYYADSVKGRFTISRDNAKNTVYLQMNSLKPEDTAVYYCAADSGSRNLASYRYYSWGQGTQVTVSS”, the “polyreactivity (PSR sort gate)” value was “low polyreactivity”.

“QVHLVESGGGLVQAGGSLRLSCAASGLIFVDNAMGWYRQAPGKERELVAAIDSGGSTNYADSVKGRFTISRDNEKNTVYLQMNSLKTEDTAVYYCAADWIYAPWYYQECVEYYYWGQGTQVTVSS”: the “polyreactivity (PSR sort gate)” value is on record as “low polyreactivity”.

Regarding “QVHLVESGGGLVQAGGSLRLSCAASGLTFYSNAMRWYRQAPGKERELVARISTGGSTYADSVKGRFTISRDNAKNTVYLQMNSLKPEDTGVFYCAKLPPRGIDDEYWGQATQVTVSS”, the “polyreactivity (PSR sort gate)” value is “low polyreactivity”.

With “QVHLVESGGGLVQAGGSLRLSCAASGLTFYWYTMGWYRQAPGKERELVAAITSGGSTSYADSVKGRFTISRDNAKNTVYLQMNSLKPEDTAVYYCAADGQVSGYDYWGQGTQVTVSS”, the “polyreactivity (PSR sort gate)” value is reported as “high polyreactivity”.

For “QVHLVESGGGLVQAGGSLRLSCAASGNIFGVYAMGWYRQAPGKERELVAAISDSTYYADSVKGRFTISRDNAKNTVYLQMTSLKPEDTAVYYCAAAVLGRYSAGDGYWGQGPQVTVSS”, the “polyreactivity (PSR sort gate)” value was “low polyreactivity”.

Turning to “QVHLVESGGGLVQAGGSLRLSCAASGRIFAWNSMGWYRQAPGKERELVAAITYNGGSTYYADSVKGRFTISRDNAKNTVYLQMNSLKPEDTAVYYCNKVTRSPAQGYGYWGQGTQVTVSS”, the “polyreactivity (PSR sort gate)” value is reported as “high polyreactivity”.

For the sequence “QVHLVESGGGLVQAGGSLRLSCAASGRIFGPYTMGWYIQAPGKEREFVAAITRRGGSTYYADSVKGRFTISRDNAKNTVYLQMNSLKPEDTAVYSCAAGGQKRSLGYSWGQGTQVTVSS”, the “polyreactivity (PSR sort gate)” value was “low polyreactivity”.

For the sequence “QVHLVESGGGLVQAGGSLRLSCAASGRIFRPYAMGWYRQAPGKERELVAGLTSSGGSTYYADSVKGRFTISRDNAKNTVYLHMNSRKPEDTALYYCAAGPDYGWRRYDYWGQGTQVTVSS”, the “polyreactivity (PSR sort gate)” value is “low polyreactivity”.

With “QVHLVESGGGLVQAGGSLRLSCAASGRIFSRNVMGWYRQAPGKERELVAAISSSGSTYADSVKGRFTISRDNAKNTVYLQMNSLKPEDTAVYYCAAVIYLWGQGTQVTVSS”, the “polyreactivity (PSR sort gate)” value is “high polyreactivity”.

As for “QVHLVESGGGLVQAGGSLRLSCAASGRIFYGYAMGWYRQAPGKEREFVAAITVSAGSTYYADSVKGRFTISRDNAKNTVYLQMNSLKPEDTAVYYCAGENGSKEFDYWGQGTQVTVSS”, the “polyreactivity (PSR sort gate)” value is on record as “low polyreactivity”.

On to “QVHLVESGGGLVQAGGSLRLSCAASGRNFGYNAMGWYRQAPRKEREFVASISSSGGLTYYSDSVKGRFTISRDNAKNTVYLQMNSLKPEDSAFYDCARQGYYLYSKYDYWGQGTQVTVSS”, for which the “polyreactivity (PSR sort gate)” value is on record as “high polyreactivity”.

Consider “QVHLVESGGGLVQAGGSLRLSCAASGRTFGINAMGWYRQAPGKERELDAVISFGDGGTYYADSVKGRFTISRDNAKNTVYLQMKSLKPEDTAVYYCATDYQSTSVWGGHFVINPYDYWGQGTQVTVSS”, for which the “polyreactivity (PSR sort gate)” value is “low polyreactivity”.

“QVHLVESGGGLVQAGGSLRLSCAASGRTFHVYAMGWYRQAPGKEREFVAFISRRGGSTYYADSVKGRFTISRDNAKNTVYLQMNSLKPEDTAVYYCNAKYPSNYVVQDDYWGQGTQVTVSS”: the “polyreactivity (PSR sort gate)” value is recorded as “high polyreactivity”.

“QVHLVESGGGLVQAGGSLRLSCAASGRTFIENAMGWYRQAPGKERELVAAIFSGGSTYYADSVKGRFTISRDNAKKTVDLQLNSLKPEDTAVYYCDARFARYDWSMYYWGQGTQVTVSS”: the “polyreactivity (PSR sort gate)” value is “low polyreactivity”.

Consider “QVHLVESGGGLVQAGGSLRLSCAASGRTFIKYAMGWYIQAPGKERELVAAISVSGGRTYYADSVKGRFTISRDKAKNTVYLQMNSLKPEDTAVYYCNKVRVGSLRGYWGQGTQVTVSS”, for which the “polyreactivity (PSR sort gate)” value was “high polyreactivity”.

Turning to “QVHLVESGGGLVQAGGSLRLSCAASGRTFNVYAMGWYRQAPGKERELVASISSSDTTNYADSVKGRFTISRDNAKNTVYLQMNSLKPEDTAVYYCAADYTPDLLSKVDYWGQGTQVTVSS”, the “polyreactivity (PSR sort gate)” value is reported as “low polyreactivity”.

On to “QVHLVESGGGLVQAGGSLRLSCAASGRTFPYNAMGWYRQAPGKERELVATIDSSGTRTFYADSVKGRFTISRDNANNTVYLQMNSLKPEDTAVYYCAKGWYAYKLYGYDYWGQGTQVTVSS”, for which the “polyreactivity (PSR sort gate)” value was “low polyreactivity”.

In the case of “QVHLVESGGGLVQAGGSLRLSCAASGRTFRLYAMAWSRQAPGKERELVARISRGGSTYYADSVKGRFTISRDNAKNTVYLLMNSLKREDTAVYYCAAEGWGLSHRYDYWGQGTQVTVSS”, the “polyreactivity (PSR sort gate)” value is recorded as “high polyreactivity”.

For the sequence “QVHLVESGGGLVQAGGSLRLSCAASGRTFSRYAMGWYRQAPGKERELVAGISLSGTSTYYADSVKGRFTISRDNAKNTVYLQMNSLIPVVTAVYYCATYSSYIPYGFDYWGQGTQVTVSS”, the “polyreactivity (PSR sort gate)” value is listed as “high polyreactivity”.

For the sequence “QVHLVESGGGLVQAGGSLRLSCAASGRTFVYYAMGWYRQAPGKERELVAAITSVGSTYYADSVKGRFTISRDNAKNTVYLQMNSLKPEDTAVYYCAKDTWAYPYYWPYDDYWGQGTQVTVSS”, the “polyreactivity (PSR sort gate)” value is on record as “low polyreactivity”.

For the sequence “QVHLVESGGGLVQAGGSLRLSCAASGRTLGGNAMGWYRQAPGKERELDAAITNSASTYADSVKGRFTISRDNAKNTVYLQMNSLKPEDTAVYYCNAPDPSDQHGDYWGQGTQVTVSS”, the “polyreactivity (PSR sort gate)” value is reported as “low polyreactivity”.

For “QVHLVESGGGLVQAGGSLRLSCAASGSIFGPNAMGWYRPAPGKERELVAAINGGTGTFYADSVKGRFTISRDNAKHTVYLQMNSLKPEDTAVYYCAADYGTHYFVRYYYWGQGTEVTVSS”, the “polyreactivity (PSR sort gate)” value was “high polyreactivity”.

As for “QVHLVESGGGLVQAGGSLRLSCAASGSIFGPYAMGWYRQAPGKERELVAAITYRGDSTYYADSVKGRFTISRDYAKNTVYLQINSLKPEDTAVYYCAADYFYANYDYWGQGTQVTVSS”, the “polyreactivity (PSR sort gate)” value is given as “high polyreactivity”.

As to “QVHLVESGGGLVQAGGSLRLSCAASGSIFGRYAMGWYRQAPGKERELVANITSGDSTNYADSVKGRFTISRDNAKNTVYLQMNSLKPEDTAVYYCAAYRIGQYDYWGQGTQVTVSS”, the “polyreactivity (PSR sort gate)” value is “high polyreactivity”.

In the case of “QVHLVESGGGLVQAGGSLRLSCAASGSIFGTNALGWYRQAPGKERELVAAINWSGGTTYYADSVKGRFTISRDNAKNTVYLQMNTLKPEDTAVYYCATFFFVLPPTRFDSWGQGTQVTVSS”, the “polyreactivity (PSR sort gate)” value is recorded as “low polyreactivity”.

For “QVHLVESGGGLVQAGGSLRLSCAASGSIFINNTMGWYRQAPGKERELVAAISITGGSTYYADSVKGRFTISRDNAKNTVYLQMNSLKPEDTAVYYCAADPLQLYDYNYWGQGTQVTVSS”, the “polyreactivity (PSR sort gate)” value is reported as “low polyreactivity”.

As for “QVHLVESGGGLVQAGGSLRLSCAASGSIFKPYTMRWYRQAPGTERELVAVITRRGGSTYYADSVKGRFTISRDNAKNTVYLQMNSLKPEDTAVYYCAAEYDYYGWWNDYWGQGTQVTVSS”, the “polyreactivity (PSR sort gate)” value is “high polyreactivity”.

On to “QVHLVESGGGLVQAGGSLRLSCAASGSIFLWYTMGWYRQAPGKERELVAAISRTGGSTYYADSVKGRFTISRDNAKNTVYLQMNSLKPEDTAVYYCAASLYSITRARYDYWGQGTQVTVSS”, for which the “polyreactivity (PSR sort gate)” value is on record as “high polyreactivity”.

Take “QVHLVESGGGLVQAGGSLRLSCAASGSIFRYNVKAWYRQAPGNERQFVAANTARGGSTYYPESVKVRFTISRDYAKNTVYRQMISMKPEDTAVYYCATVSQQSRSLGIDRIYYWGQGTQVTVSS”: the “polyreactivity (PSR sort gate)” value is recorded as “high polyreactivity”.

Consider “QVHLVESGGGLVQAGGSLRLSCAASGSIFSGNTMGWYRQAPGKERELVAAISGGGSTNYADSVKGRFTISRDNAKNTVYLQMNSLKPEDTAVYYCAKDWSLGASRMDYWGQGTQVTVSS”, for which the “polyreactivity (PSR sort gate)” value was “low polyreactivity”.

As to “QVHLVESGGGLVQAGGSLRLSCAASGSIFSWYAMGWYRQAPGKEWELVAAITWSGGSTYYADSVKGRFTISRDTAKNTVYLQMNSLKPEDTAVYYCAASYDIYGNYRRYDYWGQGTQVTVSS”, the “polyreactivity (PSR sort gate)” value is listed as “high polyreactivity”.

Turning to “QVHLVESGGGLVQAGGSLRLSCAASGSIFVENAMGWYRQPPGKEREFVAAITRSGGSTYYADSVKGRFTISRDNAKNTVYLQMNSLKPEDTAVYYCAARIWDEQPAAGYYWGQGTQVTVSS”, the “polyreactivity (PSR sort gate)” value is given as “low polyreactivity”.

As to “QVHLVESGGGLVQAGGSLRLSCAASGSIFYINAMGWYRQPPGKDREFVARISWRSGSTSYADSVKGRFTISRDNAKNTVYLQMNSLKPEDTAVYYCNAGVFANDNGGRRDQFTWEYEYWGQGTQVTVSS”, the “polyreactivity (PSR sort gate)” value is on record as “low polyreactivity”.

As for “QVHLVESGGGLVQAGGSLRLSCAASGSIFYSYAMGWYRQAPGKERELVASINWSGASTYYADSVKGRFTISRDNAKNTVYLQMNSLKPEDTAVYYCAADWWGYDGRYDYWGQGTQVTVSS”, the “polyreactivity (PSR sort gate)” value is recorded as “high polyreactivity”.

On to “QVHLVESGGGLVQAGGSLRLSCAASGSIFYWNAMGWYRQAPGKESELVATISSRGGRTSYADSVKGRFTLSRDNAKNTVYLQMNSLQPEDTAVDYCAKSIDGWYWRRRRYDYWGQGTQVTVSS”, for which the “polyreactivity (PSR sort gate)” value was “low polyreactivity”.
